Two substances from patent publication US20230331796A1 can be followed below.

This assay concerns the target single chain C1q fusion polypeptide according to formula I (TAG-X1-C1qA-X2-C1qB-X3-C1qC-X4) (human). Put plainly: C1q affinity chromatography, immobilised fusion polypeptide, linear NaCl gradient in 20 mM HEPES pH 7.4.

single chain C1q fusion polypeptide according to formula I (TAG-X1-C1qA-X2-C1qB-X3-C1qC-X4) (human), sequence (main, as listed by the source): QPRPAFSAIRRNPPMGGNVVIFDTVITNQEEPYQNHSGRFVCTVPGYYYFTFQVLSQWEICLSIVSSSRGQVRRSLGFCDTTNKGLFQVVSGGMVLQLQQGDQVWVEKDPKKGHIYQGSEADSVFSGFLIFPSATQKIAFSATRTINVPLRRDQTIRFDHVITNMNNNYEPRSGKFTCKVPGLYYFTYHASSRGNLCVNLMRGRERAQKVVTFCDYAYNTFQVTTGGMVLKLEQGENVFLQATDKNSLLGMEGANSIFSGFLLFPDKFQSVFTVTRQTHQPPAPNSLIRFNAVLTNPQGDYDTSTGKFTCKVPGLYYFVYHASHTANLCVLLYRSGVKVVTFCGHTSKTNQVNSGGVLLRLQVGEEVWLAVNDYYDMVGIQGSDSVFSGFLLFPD

On to Briakinumab (antibody), for which the retention time worked out at 30.7 min.

Substance Ustekinumab (antibody) registered a retention time of 39.1 min.
